The test addresses biotinylated SARS-CoV-2 S1 variant P.1 (Example 5) (SARS-CoV-2) (UniProt P0DTC2). As to the kind of experiment: phage ELISA screening. (ELISA stands for enzyme-linked immunosorbent assay.)

B1: 13-5 (antibody, V domains shown)
VH: QVQLVESGGGVVQPGRSLRLSCAASGFIFRSYAMHWVRQAPGKGLEWVAVISYDGSSKYYADSVKGRFTISRDNSKNTLYLQMNSLRAEDTAVYYCARPLGGGYQDAFDIWGQGTLVTVSS
VL: EIVLTQSPATLSLSPGERATLSCRASQSIGSYLAWYQQKPGQAPRLLIYDVSNRATGIPARFSGSGSGTDFTLTISSFEPEDFAVYYCQQRHHWPPVTFGGGTKVEIK
In turn, B1 showed an ELISA of 10.3.
